In the domain aggregation screens of Martell et al. (2025):

Test: soluble fraction after stress (log2 fold change); higher = more stays soluble; pooled small domains, quantitative proteomics
Conditions: stress: 75 degC
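Note: 20 min heating vs room temperature control held 20 min.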

Sequence | soluble fraction (log2)
HMNSLPFSNFMNEVEAGRVVEVKIQGNNISGVLANGKTFSTYSPNYPELVEKLSSNGVSIVATPQ | 0.28
HMNSRTLAYSDFIRKVDKGEVSAVVIDGEQVQVQTKDGQTFVTIQPQSEQMNDKLVEQLIAKDISVKAERQ | -0.0843
HMNSSLFLARQVHALRKKAGLTLQQLSRKSDVSVSTLSKIEKGQLSPTYEKIVSLARGLDVPIAALFHE | -2.45
HMNSSTVDLAKEFLIDLLSSVEKMPASEVQEEAKNAGYSVASIRRAKDNLNIKPFKDGSAWYWKLPSIFK | -0.329
HMNSSTYIVTFKVDGEEDIVETYQWGDRIIVPEVEAKDDYVFIGWDAQIPEFMPERNLEFTAI | -0.895
HMNSTNYQVIITANGGLNIRAGASTAYARIGGYAKGTVVTILAESNGFGKTDKGWISLNYTSKDLD | -3.11
HMNTAALSLQRRNEIKKWLLEEKTLTVAALSNRFNVTYETIRRDLEILEKEGFLKKVYGGAALNERV | -2.83
HMNTAIDGLIEKVGMFAMEKKAISVDQVKENFSINGEQAESVIKQLETIGVLGKKNEDGTHTVM | 0.159
HMNTDALIGKTGYVTEIVGERHGRIQFSGGEWSARTEGVSIPVGAEVRVDRIDGATAVVSAV | 0.114
HMNTDVEKQKVFTALFDDYFRRNSMTSLEKQLFLTALKTNFQNAQKTVAKDHPYYATYSLIISAIENYR | -0.525
HMNTEEKILEKEFLMLYSELGLQPKNIYELMENTGLKYEKLVEMLLQLQLKGLVEQPSYNYYSRL | -1.28
HMNTEEVGSYLKKLRLEHSFTQKELAGKLYITHQAVSNWEKGKALPDIGILSQLGDIYGISIDNLLLK | -2.04
HMNTEKRVFAGVENTRLDHFLVEQFPEFSRTFIQQMIKSANVIVNGNIEKASYKLREGDTIMTRPM | -0.489
HMNTELFTKNLFNKLEVLLGEKNWKSKTAQLLNISSDAFYKKIRNESQLNLHELLLIKDTFKISIDALLDE | -1.35
HMNTETAVTKAIDQIQVMMDLRNRSVSFTRDQETGTDIIKVIDDNTGDTIRQMPSEELLTFMKNLTQ | 0.165
HMNTFKNIFIQEGDLFNLKKNDNQIIFAKEGILINENKKIFRLLNGKIISTNNNRLIGFEFDKIDYNLSN | 0.561
HMNTGIPHQEVIKKLYSFAEGGDWKGLKEELNRIKEYTLFYNSVKELADSFEINRLIEKLKTYIF | -0.127
HMNTGLSEREHEIAQLVLQGRTYAEIGAELFISPRTAEHHIGQIRRRLAATSRSDLLAKLRVAMNTTEGAG | -2.36
HMNTISYTELIKQIDEGNVEKVEMTVGSTSVKVKLQGQEEEKKAIVPNTQAFVELIQEKTLEGNQIDLKQN | 0.0122
HMNTLSPVRILAILDGRSSMAEWQLAEELGVSIDNLSEILNKMSTDGQIRLVPSEDGRMVVP | 0.597
HMNTPALRQRTQDVPALLIHFAKYFATKGQTPISFAPDFLEALKDYPWPGNVRELRNLVESMVV | -0.133
HMNTPHLTPREREVLKGIVDGLINKEIAARMGVSVATVITHRNNLTEKLGTRSVSALTIFAVMHGIVR | -2.55
HMNTPNYDVLYRGLADADAGQIMEALQKSNIPFKVDSHSGVLLVPADQVHEARLKLASQGLPRG | -0.119
HMNTPTLLLYGGKDHSVPEAGIRHLRAHLSANDRGEYRFYPNAPHLLLQSRQWQQVSQDISQWLAMT | 0.037
HMNTRWDDAAQTWLRKVIEQQPVLVQISAAKRLRDQAEQRAREAGEEVVTEQHVKRAGLELGFGEP | 0.0588
HMNTSITVPSLKGLSQEAATLKMERLGLHVEVSDTGFVRSLAFGTVLQQSIAPGEKVKPGRLVYITINSD | -2.2

Sequence | soluble fraction (log2)
HMNTVAGAISDLSFKVRGSEDIEKLNRLKALSIQAKLDVQGQEEAERLISELEAKYGSLGMTVDKVSGKIA | 0.0323
HMNTYEIIGGDNRARGPVTGEELSQWIREGRASGHTMARVSDGEHWQPLGSFPEFVGPLQGLPW | 0.0698
HMNTYVLPDALKSQLSVEDTGMLTKQLQALPETLAEGVLDSLSQMLSKNTLQNPVGWMLAVMKRAREGNFN | -0.305
HMNVAVSEADAKAAALERVSGATEADIRMELELDDGYYVYEGDIIYQQKEYEFEIDAQTGKFLKWSEER | -0.121
HMNVDLLEARIPIQSHGMRLDQVVAELFPDYSRNRLAAWIKEGRLTVDGKTMKPRDRALASAHVVLEVV | -0.3
HMNVGKYILTLAAKEGYSQSDVARRTGISRQMLSYIIAGERKLTLPQALKIESLLSLKTGTLILMQDED | -3.35
HMNVNEIREMYPEGTQIVLTEMRGENQMPYGLKGTVKFVDDAGQIHMKWENGSSLALNINEDTFEKVE | 0.91
HMNVPATAEAYEALLADAESVGKSLWGHEAKRFAAEQALLSAGLREVIQVDPDKARELALRLRGLLDEYRG | 0.19
HMNVQGFVFDLAEPLDKVPSIEGFPLKLEDPLTLVAAVNKDRSINALFAELSKLNIKIKSMRNE | -0.0601
HMNVVSIEHIRTHLQNHLSLIGRSIEESFNEAKVIAFVASLFLTHRGYASVSQDMGTNGEIYLQDLW | -0.465
HMNVWGLSERELEATRLLIEGFSSKEASARMGISPSTVRSLWGRARAKMGVDSIEDARELVA | -0.415
HMNYAVTAARRESILNAALEIFGKSGYNGSSVKQVALAVGMTEAGVLHHFGTKSNLLIEVLRV | 0.396
HMNYLDVNIPVTSAVWMGKQLPEMGTLIYLTPDKDVEGMLFIKQATKDKPDGEYIEAKVLGYKEGRVLFDF | -0.964
HMPAEEVPLYKAVVVTTPPNRLRVRFSPAGDFKRWLQSGEEVDVYQELGDWRRIEPNGWSSAEWLQRVG | -0.465
HMPAGWIPARIRLADYPQLRSLAWHVQGIDTLTPTEALDIYERNARHLDAQAMSAQEQDLLASLRLALS | -0.888
HMPALPGNELLRNLMLEHGLKQVDLAEIGSQGVVSEILSGKRRINRRHADLLARRFSLPAELFSR | -0.217
HMPANLTPDYFKAEQWYRSASTNEEKMLALEQMLAVMPKHKGTEHLQADLKRKLSQLKDASAQ | 0.19
HMPAPAPDIPYHSRVSVRRADGFYEGTWTNTAPILDYTGRWMVNVSLGGKRVFVPVEEVVVH | -1.05
HMPAPKPSGALSLKDEPLYAASDSKRRSGTVSGTYYRWDGENVNGRMRITNKQENIGKAGQVTGWITAH | 0.0409
HMPASTSIPYSDFISRVESGDVQEAKIGESAITGTYKDGSQFKTVKPPTLDTNLMPTLIQNKVNVVGVEP | 0.176
HMPAVGGVVKGAVVSVGRNEVRLDIGGLAIGIIRGPELDKHVDLRIGDEVEATVITLDNEFGELELSL | -1.37
HMPAVTEQTKTNLRRAFWQLYEQKPIQKITVKQITDLAGYNRGTFYLYFKDVYDLLDDIENK | -1.09
HMPAVTEQTRANLRTAFWSLYREKPTSKITVREITDRAGYNRATFYLYYRDVYDLFEQIEQEIL | -2.37
HMPDAGQRRYLELVTALAGARSLTIDDLERRAIRFAEWGNGYSGRTARQFIDTLLQDRGVAEEL | -0.731
HMPDAIPLETIIKNVNVLAGFLINSKTFTEDDIVMAYNNIMKIKGDHTDEKTLTNDVYTLLTEMN | -0.714
HMPDIFDRGTAHITDAASGVAITFTRTFRIPPEVTMTHKGGTVVAIARLVGSITTGGFTAVLENT | 0.0362

Sequence | soluble fraction (log2)
HMPDLQDTLYRLVPEDGSAIGNQSLREKFLSTAKDASDADFEAARDGLVEQGKLTKGKGRGGSVRRAEP | 0.551
HMPDLSMLDEVLDEYRSQAGSLVTVLQKAQDLYGYLPLTILRHIAEEMNIKPAQVYGVATFYTQFRL | 0.0378
HMPDRQKDIQNWQQIAETLLNMLDKYVAALETGKTGLAEAYKAIFAETLRRLDDRLDPEQFLP | -1.91
HMPDTETLTPRQRQILDLVQELGFTTIETLAERFGVSAQTVRREIIRLQAGNFLQRFHGGAGLASGGIRSA | -1.24
HMPDYAFEGVVIKLTHRDYDRWKAGFPDVDLPPYLTARDAWLSEQTPADRKNWFVSTATDLRNFQKREAI | -1.26
HMPEDQISYTDLIKQINDGNVEKIKMTVGSTTIKVNLKEQEEPKTAIVPSTQAFIELVQEKVQDGNEITLI | 0.164
HMPEITPAMIKALLSSLSEELAFASVTKVYAVLHNLFKAALLDDTIDRNPMDKVPRPRKSKDAAL | -0.576
HMPELPEVETSRRGIEPHLVGATILHAVVRNGRLRWPVSEEIYRLSDQPVLSVQRRAKYLLLELQA | 0.0647
HMPELSPEERAIIETLQKNNDLQVNIIAIKTGMDMGSLSAVLFDLEMKGLVKLLAGGMYHLI | -0.66
HMPEPAPALPAKTRVSIRRETGGIIWHEGAWTISPPIRAYDGRWYVAVTTARKGIEFVPVSSVIRS | -2.18
HMPEPMKLSDLPPELWQRVSDLFDEVIDLPETDRIPYIRNLWGSEPLVAKELMALLVAAANVD | -0.452
HMPESFSEMQKRTGVGEFSDDALSAKYVDSIDADVMSLDEYIMKVRGISLDDLEAERALRAR | 0.0969
HMPETAQLTDIQVSRSQAHTGIFSLHYYLTGTDSRGERVRLEISGDDYTRLSGSSSVTVEYYRHTGRIVRY | -1.16
HMPETYVVFSKDGYANLRRGTTINSEILDVLDNGEYVTKLDEVGEWYRVEYADFDGGYIHKSQLKNI | -0.288
HMPFDRTVQLAGARARQLQALPRYREVLRLLDEGMNPREIGQVLDPPVTRQRASALIQQAKRAQMLGLFED | -1.04
HMPFNLKSLADRLSHVFPGLVKMRDDIGAIIVMDKIKVTEHGVTEGGGLAADRVRAVYNEFIKEY | -0.247
HMPFSLHGVNEGSRNDNAARIAGYLISKNLNLDFVRIFLHNWNRDNKPPLPQQEIDSVVDNVKKTHDRKN | -2.09
HMPGEATVPSVIGMTKAEAKAKLQASGFELGYSEFVASDKPKGEIVEQDPGAGETAKGGTEVNVKISDGS | 0.0718
HMPGLDTTILSDILSLKKELPSRSAAKILIMLILAKRIEEGSLNLRTINRILNQYGYTRESLL | 0.144
HMPGLQSVTPAELKIGMYVILPLAWDEHPFLKNHFLIQSEAQINKIRELGTKGIQIDLSKSHP | -1.9
HMPGMLVVYVTGAVRQPGRMVTLAAGSRVSDAIDAAGGLADDADAQALNLSARLNDGDLVHVPSALD | -0.264
HMPHILEITSSKILDELQDEKKMVYFHFEKQSNQYVYRLIFNSKNELMEFKKSLEKNSSILDVRADM | -1.81
HMPHITDAEWEVMRVVWANHHVTSKEVISILEDKMNWKATTIKTLLGRLVEKGALSTEQDGKKFIYTAR | -1.6
HMPHTDATDKQIIALILETLKDGQKHSVSEMTFPGIPREKTAQLLHQMIEEETVRIQNGVLFLPH | 0.00795
HMPIDNTLLSRITSLGVSTTEAEKLISKHGEEALKANLEVVEERLSKPNLPLLDSPAAYLKTALKNG | 0.415
